Key:
[1] = target: T1, recombinant human macrophage migration inhibitory factor (MIF) (human, UniProt P14174 2-115, biotinylated (Amersham ECL Protein Biotinylation kit; sites not stated)); test: ELISA, IgG at 6.25 nM on biotinylated human MIF on neutravidin plate
T1 construct: also called human MIF; biotinylated MIF
Procedure: (§1) Cross-reactivity of antibodies to human MIF and human D-DT was determined by ELISA. Biotinylated recombinant human MIF or D-DT with a concentration of 1 μg/ml were coated on reacti-bind neutravidin coated black 384-well plates (Thermo Scientifc) for 1, 5 h at room temperature. Reacti-bind neutravidin plates had been pretreated with PBS/5% skim milk powder before. After washing with PBST purified IgGs were applied in a concentration of 6.25 nM on a MIF or a D-DT coated plate respectively and incubated for 2 hours at room temperature. After subsequent washing antigen-specific bound IgG was detected via AP-Goat-anti-human IgG Fc-γ fragment specific (Fa Jackson ImmunoResearch) secondary antibody and application of Attophos (Fa ROCHE) according to the manufacturer's manual. Fluorescence intensity was measured via Tecan Reader GeniosPro and fluorescence intensity for the individual clones was compared to control antibody.

[2] = target: T2, recombinant human D-dopachrome tautomerase (D-DT) (human, UniProt P30046 2-118, biotinylated (Amersham ECL Protein Biotinylation kit; sites not stated)); test: ELISA, IgG at 6.25 nM on biotinylated human D-DT on neutravidin plate
T2 construct: Used biotinylated on neutravidin plates; also called human D-DT
Procedure: as §1

[3] = target: T1, recombinant human macrophage migration …; test: ELISA, IgG titrated (0-166 nM) on biotinylated human MIF on neutravidin plate
Procedure: (§2) For further characterization, the EC₅₀ concentration for each of the cross-reactive antibodies to MIF and to D-DT was determined based on the ELISA setting according to Example 1. Concentrations of each of the individual antibodies were titrated and 8 distinct concentrations from 0 nM to 166 nM were applied side by side on a plate coated with MIF and a plate coated with D-DT. Biotinylated recombinant human MIF or D-DT with a concentration of 1 μg/ml were coated on reacti-bind neutravidin coated black 384-well plates (Thermo Scientifc) for 1, 5 h at room temperature. Reacti-bind neutravidin plates had been pretreated with PBS/5% skim milk powder before. After washing with PBST purified IgGs were added to the MIF or D-DT coated plate respectively and incubated for 2 hours at room temperature. After subsequent washing antigen-specific bound IgG was detected via AP-Goat-anti-human IgG Fc-γ fragment specific (Fa Jackson ImmunoResearch) secondary antibody and application of Attophos (Fa ROCHE) according to the manufacturer's manual. Fluorescence intensity was measured via Tecan Reader GeniosPro and fluorescence intensity for the individual clones was plotted in a typical antibody titration curve. EC₅₀ values were determined with the program GraphPad Prism using non-linear regression analysis.

[4] = target: T2, recombinant human D-dopachrome …; test: ELISA, IgG titrated (0-166 nM) on biotinylated human D-DT on neutravidin plate
Procedure: as §2

[5] = target: T1, recombinant human macrophage migration …; test: ELISA, antibody at 6.25 nM on recombinant MIF (FIG. 2)
Procedure: as §1

[6] = target: T2, recombinant human D-dopachrome …; test: ELISA, antibody at 6.25 nM on recombinant D-DT (FIG. 2)
Procedure: as §1

[7] = target: T1, recombinant human macrophage migration …; test: ELISA; lower end of the group's range, tied to C on MIF by Table 2
Procedure: as §2

[8] = target: T2, recombinant human D-dopachrome …; test: ELISA; upper end of the group's range, tied to A on D-DT by Table 2
Procedure: as §2

T2 sequence (P30046 2-118 limits assumed): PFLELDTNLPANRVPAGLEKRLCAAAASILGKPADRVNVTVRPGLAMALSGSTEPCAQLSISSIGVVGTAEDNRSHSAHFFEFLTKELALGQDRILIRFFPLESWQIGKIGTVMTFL
T1 sequence (P14174 2-115 limits assumed): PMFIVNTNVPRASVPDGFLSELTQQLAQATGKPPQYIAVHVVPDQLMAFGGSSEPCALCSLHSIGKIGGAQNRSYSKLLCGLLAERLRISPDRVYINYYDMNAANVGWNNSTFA

Binder | fold signal intensity compared to the negative control [1] [fold] | fold signal intensity compared to the negative control [2] [fold] | EC50 [3] [nM] | EC50 [4] [nM] | fold fluorescence intensity above background [5] [fold] | fold fluorescence intensity above background [6] [fold] | EC50 [7] [nM] | EC50 [8] [nM]
MOR014116 (antibody, V domains shown, also called antibody B) VH: QVQLVQSGAEVKKPGSSVKVSCKASGGTFSDYAISWVRQAPGQGLEWMGLIIPLFGTANYAQKFQGRVTITADESTSTAYMELSSLRSEDTAVYYCARSPAYQLVTPYYYVSDWFDVWGQGTLVTVSS VL: DIVLTQPPSVSGAPGQRVTISCSGSSSNIGSNYVSWYQQLPGTAPKLLIYDNSERPSGVPDRFSGSKSGTSASLAITGLQAEDEADYYCQSWDASPWSYVFGGGTKLTVLG | ≥ 5 | ≥ 5 | 0.486 | 8.47 | > 5 | > 5 |  | 
MOR014138 (antibody, V domains shown, also called antibody C) VH: QVQLVQSGAEVKKPGSSVKVSCKASGGTFTSYAIHWVRQAPGQGLEWMGRIIPHFGTAYYAQKFQGRVTITADESTSTAYMELSSLRSEDTAVYYCARVQVYMSVLGWGYENYMDVWGQGTLVTVSS VL: DIVLTQSPATLSLSPGERATLSCRASQSVSAFQLGWYQQKPGQAPRLLIYGASTRATGIPARFSGSGSGTDFTLTISSLEPEDFAVYYCQQYIQYPYTFGQGTKVEIKR | ≥ 5 | ≥ 5 | 0.36 | 2.29 | > 5 | > 5 | 0.3 | 
MOR014093 (antibody, V domains shown, also called antibody A) VH: QVQLLESGGGLVQPGGSLRLSCAASGFTFSDYYMDWVRQAPGKGLEWVSAISSSGSTTYYADSVKGRFTISRDNSKNTLYLQMNSLRAEDTAVYYCARGNLFGSTYVMGFDHWGQGTLVTVSS VL: DIELTQPPSVSVSPGQTASITCSGDSIGSTHVSWYQQKPGQAPVLVIYRKSNRPSGIPERFSGSNSGNTATLTISGTQAEDEADYYCSSWDSESVVFGGGTKLTVLG | ≥ 5 | ≥ 5 | 1.14 | 21.2 | > 5 | > 5 |  | 22

From US20140120115A1 (MorphoSys, published 2014)
